B1: TrwJ/VirB5 (natural protein, plasmid R388, UniProt O50331 23-226, looked up)
chain: QGIPVFDGTRALDFVQQFARMKEQLDTAKDQLAEAQRMYEAVTGGRGLGDLMRNAQLREYLPDDLRTVYDSANGGGYSGISGSINDILRDERLNGSVADMRRSIEERSRTARTTDKAVGCGPTKGHSNASRRLKDEISRTQDQKAIEELQARIAGEQAAIQNETTKLQMIAQLRQAEQALISEQRRERNMPILSSGNQGMPTIQ
B2: TrwG/VirB8 (natural protein, plasmid R388)
chain: MSKKQPKPVKAEQLKSYYEESRGLERDLIGEFVKSRKTAWRVATASGLFGLLGMVCGIVGFSQPAPAPLVLRVDNATGAVDVVTTLREHESSYGEVVDTYWLNQYVLNREAYDYNTIQMNYDTTALLSAPAVQQDYYKLFDGSNARDRVLGNKARITVRVRSIQPNGRGQATVRFTTQQHNSNGTVERPQHQIATIGYTYIGAPMRSSDRLLNPLGFQVTSYRADPEILNN
B3: TrwI/VirB6 (natural protein, plasmid R388)
chain: MAFELFTPLFNKIDQTTATYVTDISSRAIAAITPVVSVGLTLGFITYGWLIIRGAVEMPVAEFLNRCLRIGIIVSIALAGGLYQGEIANAITTVPDELASALLGNPTEGASAAALVDQSAQQGFDRASEAFEEAGFFSSDGLLYGLFGIIIPAGYGPAGAIGGAFLLLAKIALALLAGLGPLFILALIWQPTHRFFDQWAQQVLNYGLLIVLFAAVFGLLMQIFGSYMADLRFDGAQNVAYAIGGSVILSIVSIVLLMQLPSIASGLAGGIGLGYMWELRSMRSGAGAAMRGGRAMARGARAAPGAARGAAVGAANMAKTVATGGAGVARAAAGYFRGRKAG
B4: TrwF/VirB9 (natural protein, plasmid R388)
chain: LDVPSSSRYDHRIRYVTYNPADVVQVDTVLGVATHIMLEEGEQYLTHAFGIPKPMPLPGRAGIFLSSRTAELANTNLIVVTDRRSYKFRLQMRNDRNGAMYELAFRYPDTQARQTREANARAAVEAAFEQRVGAYYNLKYMMSGDKDIAPVNAWDDGRFTYFKFSANADLPSIYFVDAEGNESLVPRTTVGSSNNIIAVHKVNPKWMIRLGNRALAIFNEAYDPNGVPNDTGTASPAVRRVNKGGN

Common to all, as to test: cryo-EM structure
Series [1] has as its target B3.
Series [2] concerns the molecule itself.
Series [3] deals with T1, TrwE/VirB10 (plasmid R388, UniProt O50337 1-395).
T1 sequence: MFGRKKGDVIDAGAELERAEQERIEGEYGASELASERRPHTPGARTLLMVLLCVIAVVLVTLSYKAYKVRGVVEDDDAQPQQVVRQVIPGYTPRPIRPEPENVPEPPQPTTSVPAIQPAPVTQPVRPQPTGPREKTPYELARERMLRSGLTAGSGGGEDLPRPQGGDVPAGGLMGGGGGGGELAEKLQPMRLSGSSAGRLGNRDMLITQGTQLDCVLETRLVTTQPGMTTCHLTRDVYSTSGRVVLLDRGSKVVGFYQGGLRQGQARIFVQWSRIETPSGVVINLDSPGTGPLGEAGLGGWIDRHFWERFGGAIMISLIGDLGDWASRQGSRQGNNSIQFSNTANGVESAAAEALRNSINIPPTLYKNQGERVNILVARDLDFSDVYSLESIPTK

For B1, the binding result in series [1] is “binds”.
For the molecule B2, the “stoichiometry N” value in series [2] came to 24. The binding result in series [3] was “binds”.
Consider B3, for which the binding result in series [3] is “binds”.
B4: the binding result in series [3] is “binds”.

The record behind these values is publication doi:10.1101/2024.02.08.579498 (bioRxiv, 2024).
